From publication PMC8621594, “Physicochemical and Biological Characterization of rhC1INH Expressed in CHO Cells” (Pharmaceuticals, 2021)

T1: blood coagulation factor XIIa (human, UniProt P00748 20-615)
T1 sequence (looked up): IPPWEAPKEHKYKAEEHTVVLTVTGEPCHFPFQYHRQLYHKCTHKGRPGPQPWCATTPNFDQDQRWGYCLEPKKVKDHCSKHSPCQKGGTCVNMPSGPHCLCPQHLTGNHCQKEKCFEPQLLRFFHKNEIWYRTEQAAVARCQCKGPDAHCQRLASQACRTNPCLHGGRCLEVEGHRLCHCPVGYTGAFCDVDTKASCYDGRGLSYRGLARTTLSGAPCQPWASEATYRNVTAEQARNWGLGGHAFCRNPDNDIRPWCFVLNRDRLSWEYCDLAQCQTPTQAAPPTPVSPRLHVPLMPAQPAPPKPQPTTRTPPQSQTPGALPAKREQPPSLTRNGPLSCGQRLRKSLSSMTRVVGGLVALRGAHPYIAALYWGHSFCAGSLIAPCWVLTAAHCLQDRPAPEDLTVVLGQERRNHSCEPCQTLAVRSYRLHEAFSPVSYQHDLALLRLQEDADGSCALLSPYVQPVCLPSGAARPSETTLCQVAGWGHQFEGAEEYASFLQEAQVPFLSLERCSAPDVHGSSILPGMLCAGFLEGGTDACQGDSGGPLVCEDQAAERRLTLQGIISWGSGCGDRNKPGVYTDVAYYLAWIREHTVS


What was measured:
human C1s = human C1s (human); assay: cell-based or functional assay
[1] = target: T1, blood coagulation factor XIIa; assay: cell-based or functional assay
[2] = target: T1, blood coagulation factor XIIa; assay: BLI; Octet QKe; each protease diluted to 10 ug/mL in 10 mM sodium acetate pH 6.0 and covalently immobilised on amino reactive sensors (AR2G); C1 inhibitor at 11, 5.5 and 2.8 uM in triplicates; 24 °C, 250 rpm; only the association rate constant calculated because complex formation is irreversible; settings: both partners purified

IC50 of the inhibition of human serum complement (lysis of chicken erythrocytes), Ruconest® 0.0076 to 15.6 IU/mL; printed as activity against human C1-esterase in the blood serum (human C1s) [IU/mL]	inhibitory activity toward factor XIIa, chromogenic substrate S-2302, inhibitor 18 to 0.14 µM, relative to Berinert® (100%) [1] [%]	kon [2] [M⁻¹ s⁻¹]	Binder
1.66			Ruconest^® (conestat alfa), human recombinant C1 inhibitor purified from the milk of transgenic rabbits (natural protein, UniProt P05155 23-500, looked up, glycosylated; 8.0 ± 0.6 mol Neu5Ac/mol protein) NPNATSSSSQDPESLQDRGEGKVATTVISKMLFVEPILEVSSLPTTNSTTNSATKITANTTDEPTTQPTTEPTTQPTIQPTQPTTQLPTDSPTQPTTGSFCPGPVTLCSDLESHSTEAVLGDALVDFSLKLYHAFSAMKKVETNMAFSPFSIASLLTQVLLGAGENTKTNLESILSYPKDFTCVHQALKGFTTKGVTSVSQIFHSPDLAIRDTFVNASRTLYSSSPRVLSNNSDANLELINTWVAKNTNNKISRLLDSLPSDTRLVLLNAIYLSAKWKTTFDPKKTRMEPFHFKNSVIKVPMMNSKKYPVAHFIDQTLKAKVGQLQLSHNLSLVILVPQNLKHRLEDMEQALSPSVFKAIMEKLEMSKFQPTLLTLPRIKVTTSQDMLSIMEKLEFFDFSYDLNLCGLTEDPDLQVSAMQHQTVLELTETGVEAAAASAISVARTLLVFEVQQPFLFVLWDQQHKFPVFMGRVYDPRA
	115	3260	recombinant human C1 esterase inhibitor (rhC1INH) from Chinese hamster ovary (CHO) cells (natural protein, UniProt P05155 23-500, looked up, heavily glycosylated: six occupied N- and more than 12 O- sites of glycosylation; about 20 mol Neu5Ac/mol protein, mass of the totally deglycosylated protein 52,846 Da (theoretical 52,849 Da); By LC-MS 71% of the deglycosylated product is the full structure; source: genetically engineered CHO cells, purified) NPNATSSSSQDPESLQDRGEGKVATTVISKMLFVEPILEVSSLPTTNSTTNSATKITANTTDEPTTQPTTEPTTQPTIQPTQPTTQLPTDSPTQPTTGSFCPGPVTLCSDLESHSTEAVLGDALVDFSLKLYHAFSAMKKVETNMAFSPFSIASLLTQVLLGAGENTKTNLESILSYPKDFTCVHQALKGFTTKGVTSVSQIFHSPDLAIRDTFVNASRTLYSSSPRVLSNNSDANLELINTWVAKNTNNKISRLLDSLPSDTRLVLLNAIYLSAKWKTTFDPKKTRMEPFHFKNSVIKVPMMNSKKYPVAHFIDQTLKAKVGQLQLSHNLSLVILVPQNLKHRLEDMEQALSPSVFKAIMEKLEMSKFQPTLLTLPRIKVTTSQDMLSIMEKLEFFDFSYDLNLCGLTEDPDLQVSAMQHQTVLELTETGVEAAAASAISVARTLLVFEVQQPFLFVLWDQQHKFPVFMGRVYDPRA
